Residue numbers refer to the chain shown, from its start. Numbers in names are those of the source.
B1: W3056-AP17R1-2H2-FC(IgG4.SP) (Fc fusion)
chain: QVQLVESGGGLVQPGGSLRLSCAASDSIDSLVNMGWYRQAPGKQRELVALIANYITHYADFVKGRFTISRDAAKNTVNLQMSSLKPEDTAVYYCYARNIIVDYWGQGTQVTVSS
notes: VHH fused to Fc of human IgG4 S228P; also called W3056 lead parental antibody (VHH-Fc(hIgG4) fusion); not shown: Fc of human IgG4 (hIgG4.S228P)
B2: W3056-AP17R1-2H2-Z1-R1-14A1-FC(IgG4.SP) (Fc fusion)
chain: B1 chain with L11V, N53T, A72N, A73S, V77L, N78Y, S82N, K85R, P86A, Q109L
notes: also called W3056 lead antibody (VHH-Fc(hIgG4) fusion); not shown: Fc of human IgG4 (hIgG4.S228P)

How the values were obtained:
Mouse PD-1 on 293F cells [1] = molecular target: T1, Mouse PD-1 on 293F cells (mouse, UniProt Q02242 25-288); assay: FACS on 293F.mPro1.B4 cells
T1 construct: whole, on cells; also called 293F.mPro1.B4; WBP305.293F.mPro1.B4
T1 sequence (looked up): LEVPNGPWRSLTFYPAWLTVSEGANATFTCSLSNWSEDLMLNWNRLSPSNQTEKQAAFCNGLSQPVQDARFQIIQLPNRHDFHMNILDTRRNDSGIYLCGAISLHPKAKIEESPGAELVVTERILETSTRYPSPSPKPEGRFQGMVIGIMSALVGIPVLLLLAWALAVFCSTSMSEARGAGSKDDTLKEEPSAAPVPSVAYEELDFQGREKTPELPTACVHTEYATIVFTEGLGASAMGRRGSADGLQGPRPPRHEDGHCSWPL
Procedure: The cells 293F.mPro1.B4 (2×10⁵ cells/well) were incubated with various concentrations of anti-PD-1 antibodies (3-fold serially diluted from 133.3 nM to 0.008 nM) at 4° C. for 1 hour. After washing with 1×PBS/1% BSA, the secondary antibody PE-labeled goat anti-human IgG was applied and incubated with cells at 4° C. for 1 hour. Human IgG4 isotype antibody was used as negative control. The cells were then washed and re-suspended in 1×PBS/1% BSA. MFI of the cells was measured by a flow cytometer and analyzed by FlowJo (version 7.6.1).

[2] = molecular target: T2, Human PD-1 on CHO-S cells (human, UniProt Q15116 25-288); assay: FACS on CHO-S.hPro1.C6 cells
T2 construct: whole, on cells; also called CHO-S.hPro1.C6; WBP305.CHO-S.hPro1.C6
Procedure: The cells CHO-S.hPro1.C6 (2×10⁵ cells/well) were incubated with various concentrations of anti-PD-1 antibodies (4-fold serially diluted from 133.3 nM to 0.008 nM) at 4° C. for 1 hour. After washing with 1×PBS/1% BSA, the secondary antibody PE-labeled goat anti-human IgG was applied and incubated with cells at 4° C. for 1 hour. Anti-human PD-1 antibodies BMK1 and BMK3 were used as positive control. Human IgG4 isotype antibody was used as negative control. The cells were then washed and resuspended in 1×PBS/1% BSA. MFI of the cells was measured by a flow cytometer (BD) and analyzed by FlowJo (version 7.6.1).

Mouse PD-1 on 293F cells [3] = molecular target: T1, Mouse PD-1 on 293F cells; assay: FACS competition on 293F.mPro1.B4 cells; competitor mProL1.ECD.mFc 5 µg/mL
Procedure: The mouse PD-1 transfected 293F.mPro1.B4 cells were transferred into 96-well U-bottom plates at a density of 2×10⁵ cells/well. Various concentrations of anti-PD-1 antibodies (3-fold serially diluted from 1334 nM to 0.07 nM) and constant concentration of mouse Fc tagged mouse PD-L1 ECD protein (mProL1.ECD.mFc) (5 μg/mL) were pre-mixed and incubated with cells at 4° C. for 1 hour. After washing with 1×PBS/1% BSA, the secondary antibody PE-labeled goat anti-mouse IgG was applied and incubated with cells at 4° C. for 1 hour. The cells were then washed and resuspended in 1×PBS/1% BSA. MFI of the cells was measured by a flow cytometer and analyzed by FlowJo (version 7.6.1).

[4] = molecular target: T2, Human PD-1 on CHO-S cells; assay: FACS competition on CHO-S.hPro1.C6 cells; competitor hProL1.ECD.mFc 5 µg/mL
Procedure: The human PD-1 transfected CHO-S.hPro1.C6 cells were transferred into 96-well U-bottom plates at a density of 2×10⁵ cells/well. Various concentrations of antibodies (4-fold serially diluted from 133.3 nM to 0.008 nM) and constant concentration of mouse Fc tagged PD-L1 ECD protein (hProL1.ECD.mFc) (5 μg/mL) were pre-mixed and incubated with cells at 4° C. for 1 hour. After washing with 1×PBS/1% BSA, the secondary antibody PE-labeled goat anti-mouse IgG was applied and incubated with cells at 4° C. for 1 hour. The cells were then washed and resuspended in 1×PBS/1% BSA. MFI of the cells was measured by a flow cytometer and analyzed by FlowJo (version 7.6.1).

[5] = molecular target: T3, Human CD28 extracellular domain, mFc tag (human, UniProt P10747 19-152); assay: ELISA, coated antigen 1 ug/mL, antibody 100 nM, HRP goat anti-human IgG
T3 construct: extracellular domain; also called hCD28.ECD.mFc; not shown: mouse Fc tag at C-terminus
Procedure: (§1) Plates were pre-coated with 1 μg/mL, 100 μL per well of hPD-1.ECD.mFc, hCD28.ECD.mFc, hCTLA-4.ECD.His, hICOS.ECD.mFc or hBTLA.ECD.His at 4° C. overnight. After 1-hour blocking using 200 μL of 1×PBS/2% BSA, testing antibodies were added to the plates at a concentration of 100 nM. The plates were incubated at ambient temperature for 1 hour. The binding of the antibodies to the immobilized proteins was detected by HRP-labeled goat anti-human IgG antibody. The color was developed by dispensing 100 μL of TMB substrate, and then stopped by 100 μL of 2N HCl. The absorbance was read at 450 nm and 540 nm using a microplate spectrophotometer.

[6] = molecular target: T4, Human CTLA-4 extracellular domain, His tag (human, UniProt P16410 36-161); assay: as above
T4 construct: extracellular domain; also called hCTLA-4.ECD.His; not shown: 6xhis tag at C-terminus
T4 sequence (looked up): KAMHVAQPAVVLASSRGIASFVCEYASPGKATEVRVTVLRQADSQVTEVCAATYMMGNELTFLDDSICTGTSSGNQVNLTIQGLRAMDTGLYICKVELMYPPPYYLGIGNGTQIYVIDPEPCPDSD
Procedure: as §1

[7] = molecular target: T5, Human ICOS extracellular domain, mFc tag (human, UniProt Q9Y6W8 21-140); assay: as above
T5 construct: extracellular domain; also called hICOS.ECD.mFc; not shown: mouse Fc tag at C-terminus
T5 sequence (looked up): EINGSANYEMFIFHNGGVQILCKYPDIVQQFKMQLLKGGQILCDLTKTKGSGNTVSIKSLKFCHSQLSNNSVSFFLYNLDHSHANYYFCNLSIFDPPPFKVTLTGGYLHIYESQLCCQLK
Procedure: as §1

T2 sequence (Q15116 25-288): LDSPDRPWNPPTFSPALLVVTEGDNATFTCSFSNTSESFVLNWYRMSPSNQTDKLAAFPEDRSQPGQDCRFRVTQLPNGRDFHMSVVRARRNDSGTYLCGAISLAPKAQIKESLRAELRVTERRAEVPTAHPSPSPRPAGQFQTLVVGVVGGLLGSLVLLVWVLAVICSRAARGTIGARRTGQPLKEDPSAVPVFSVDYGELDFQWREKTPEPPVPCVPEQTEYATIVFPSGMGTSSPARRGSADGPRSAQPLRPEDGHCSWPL
T3 sequence (P10747 19-152): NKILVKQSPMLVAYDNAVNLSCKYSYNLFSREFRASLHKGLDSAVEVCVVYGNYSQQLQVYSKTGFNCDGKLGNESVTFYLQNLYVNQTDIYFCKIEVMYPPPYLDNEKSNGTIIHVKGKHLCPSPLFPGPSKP

Binder	EC50 (Mouse PD-1 on 293F cells [1]) [nM]	EC50 [2] [nM]	IC50 (Mouse PD-1 on 293F cells [3]) [nM]	IC50 [4] [nM]	binding result [5]	binding result [6]	binding result [7]
B1	4.77	1.87	22.1	1	no binding (tested: 100 nM)	no binding (tested: 100 nM)	no binding (tested: 100 nM)
B2	4.26	0.612	10.2	0.655	no binding (tested: 100 nM)	no binding (tested: 100 nM)	no binding (tested: 100 nM)

Reference: US20240301067A1 (WUXI BIOLOGICS IRELAND, published 2024)
